Source: the RNAGym collection of RNA variant scans (doi:10.1073/pnas.2313332121)
Fewer inactive variants are shown than the library holds.

B1: TPR 5TU (parent)
chain: GGAUCUUCUCGAUCUAACAAAAAAGACAAAUCUGCCACAAAGCUUGAGAGCAUCUUCGGAUGCAGAGGCGGCAGCCUUCGGUGGCGCGAUAGCGCCAACGUUCUCAACUAUGACACGCAAAACGCGUGCUCCGUUGAAUGGAGUUUAUCAUG

Variants of: B1
Test: polymerase ribozyme fitness, log enrichment relative to wild type (log ratio); higher = more active; in vitro selection for triplet polymerase activity
Summary of the method: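 Mutant libraries were PCR-built and transcribed for each subunit of a heterodimeric triplet polymerase ribozyme and selected for one round in triplicate at −7 °C, frozen, before gel excision of extended constructs and streptavidin-bead capture. Input and output libraries were Illumina-sequenced, keeping genotypes with ≥10 input reads and ≥1 read per output. Fitness is a logarithmic ratio of genotype to wild-type enrichment, in base 2, using inverse-variance-weighted replicate averages.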

| Variant | polymerase ribozyme fitness (log ratio) |
| --- | --- |
| G50U U102A A142U | -2.57 |
| G50U U55A G71U | -3.35 |
| G50U U144G U145A | 0.245 |
| G50U C87U A89G | -3.95 |
| C51A G86A C118A | -3.43 |
| G50C C96U U134A | ≤ -4.2 |
| G50U A66C C69U A73C | ≤ -4.2 |
| C51A C96A | -1.26 |
| G50C A52C U55A G86A | -3.95 |
| C51G A91G | ≤ -4.2 |
| C51G A91U | ≤ -4.2 |
| G50U U56A G83A | -0.268 |
| G50A G84A | -2.43 |
| G50A G84U | -1.58 |
| C51A A52G | -0.455 |
| G50C U102G | -3.32 |
| C51A G117U | -1.02 |
| G50U C54G A150U | -2.15 |
| G50C U134C | -2.51 |
| G50C A119U | -3.92 |
| C51A C75U C95U A106C G128U | ≤ -4.2 |

| Variant | polymerase ribozyme fitness (log ratio) |
| --- | --- |
| G50C G59A U145C | -3.51 |
| G50U C95G | -0.905 |
| G50U G94A | -0.00242 |
| G50U G80A G92A A115U | ≤ -4.2 |
| G50C C51U C87U G152U | ≤ -4.2 |
| G50C G58U | -1.88 |
| G50C U55G C63A C76G A91G C125G U145C | ≤ -4.2 |
| G50U G81C U134A | -2.19 |
| G50A G83A A97G | -0.838 |
| C51A A52U C63U C99G A106C A119G G126U | ≤ -4.2 |
| G50C U56A | -2.92 |
| G50U C63U C79G C131G A137C | ≤ -4.2 |
| G50U C63U C85A A110G | -4.19 |
| G50A G59C U90G | ≤ -4.2 |
| G50C U55A | -3.29 |
| G50A U78A G83A G100A A107C | ≤ -4.2 |
| G50C A142U | -3.9 |
| G50C A73G G84A | -4.1 |
| G50C G94A A107G U134C | ≤ -4.2 |
| C51A G68U U82C C116U U146G | ≤ -4.2 |
| G50C U104G | ≤ -4.2 |

| Variant | polymerase ribozyme fitness (log ratio) |
| --- | --- |
| G50A C95G | -3.01 |
| G50A C95U | -2.44 |
| G50C A64C G80A A120C G128U | ≤ -4.2 |
| G50C A73G C87A | ≤ -4.2 |
| G50A C93U | -3.07 |
| G50C G58A C125A | -3.17 |
| G50C C129U | -3.94 |
| G50A G84U G141U | -3.31 |
| C51A C57A C87U A98G U146G | -3.12 |
| G50A C93U G152A | -3.09 |
| G50U C87U G152U | -4.17 |
| G50U G83A | -0.347 |
| G50U G83C | -0.813 |
| G50A C57A C85A A91C A98C A121U G128U U135G A142U G143A | ≤ -4.2 |
| G50U U53A G58A A73G C79A C93A A107U C116G G136C | ≤ -4.2 |
| G50C U61A G62U A142C | -2.79 |
| G50A U82C | -0.783 |
| G50C G59C G62A G68C C95U U148C | ≤ -4.2 |
| G50A U55A C95A | -1.86 |
| G50C U101G | -2.64 |
| G50C G81A G86U C87A G136U | ≤ -4.2 |

| Variant | polymerase ribozyme fitness (log ratio) |
| --- | --- |
| G50U G65C A66C C96G | ≤ -4.2 |
| G50C A52C | -2.71 |
| G50C A52C G58C | ≤ -4.2 |
| G50U G86A | -2.57 |
| G50U G86U | -1.71 |
| G50U C99A | -1.59 |
| G50U C96U C99A C103G G124C C129A U144G | ≤ -4.2 |
| G50A G58C C76U C85G G141U | -4.1 |
| G50U G86A C93U C96U | -0.529 |
| C51A C96A A115G A137U | ≤ -4.2 |
| G50A C57U G74U C75G C87A A97C A150G | ≤ -4.2 |
| C51A G74A | ≤ -4.2 |
| G50A G94U C116G | -1.85 |
| G50C A52C U56C C96U A107U | ≤ -4.2 |
| C51A U55A A60C G74A G81A U90G C95A | ≤ -4.2 |
| G50U C93U | -2.05 |
| G50C U77G C93G | ≤ -4.2 |
| C51A A66G G71A G80C G94C A113G | ≤ -4.2 |
| G50U C75G G86U C87A A89U | ≤ -4.2 |
| G50A C54U A91U C93U A107C C108A C132G A138U U148G | ≤ -4.2 |
